Data: IntAct's records for PubMed 22153509

B1: Interleukin-5 receptor subunit alpha (Homo sapiens), Q01344-2 (parent)
chain: MIIVAHVLLILLGATEILQADLLPDEKISLLPPVNFTIKVTGLAQVLLQWKPNPDQEQRNVNLEYQVKINAPKEDDYETRITESKCVTILHKGFSASVRTILQNDHSLLASSWASAELHAPPGSPGTSIVNLTCTTNTTEDNYSRLRSYQVSLHCTWLVGTDAPEDTQYFLYYRYGSWTEECQEYSKDTLGRNIACWFPRTFILSKGRDWLAVLVNGSSKHSAIRPFDQLFALHAIDQINPPLNVTAEIEGTRLSIQWEKPVSAFPIHCFDYEVKIHNTRNGYLQIEKLMTNAFISIIDDLSKYDVQVRAAVSSMCREAGLWSEWSQPIYVGFSR

Variants of: B1
Conditions: with il5_human IL5, P05113
Sequence of il5_human IL5, P05113 (P05113 whole entry): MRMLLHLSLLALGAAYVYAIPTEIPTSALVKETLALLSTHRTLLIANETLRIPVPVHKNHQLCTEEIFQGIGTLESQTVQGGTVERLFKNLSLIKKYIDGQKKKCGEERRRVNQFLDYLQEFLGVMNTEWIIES

effect of a mutation on the interaction | Variant
decreasing interaction | MIIVAHVLLILLGATEILQADLLPDEKISLLPPVNFTIKVTGLAQVLLQWKPNPDQEQRNVNLEYQVKINAPKEDDYETRITESKCVTALHKGFSASVRTILQNDHSLLASSWASAELHAPPGSPGTSIVNLTCTTNTTEDNYSRLRSYQVSLHCTWLVGTDAPEDTQYFLYYRYGSWTEECQEYSKDTLGRNIACWFPRTFILSKGRDWLAVLVNGSSKHSAIRPFDQLFALHAIDQINPPLNVTAEIEGTRLSIQWEKPVSAFPIHCFDYEVKIHNTRNGYLQIEKLMTNAFISIIDDLSKYDVQVRAAVSSMCREAGLWSEWSQPIYVGFSR [I89A]
disrupting interaction | MIIVAHVLLILLGATEILQADLLPDEKISLLPPVNFTIKVTGLAQVLLQWKPNPDQEQRNVNLEYQVKINAPKEDDYPTRITESKCVTILHKGFSASVRTILQNDHSLLASSWASAELHAPPGSPGTSIVNLTCTTNTTEDNYSRLRSYQVSLHCTWLVGTDAPEDTQYFLYYRYGSWTEECQEYSKDTLGRNIACWFPRTFILSKGRDWLAVLVNGSSKHSAIRPFDQLFALHAIDQINPPLNVTAEIEGTRLSIQWEKPVSAFPIHCFDYEVKIHNTRNGYLQIEKLMTNAFISIIDDLSKYDVQVRAAVSSMCREAGLWSEWSQPIYVGFSR [E78P]
decreasing interaction | MIIVAHVLLILLGATEILQADLLPDEKISLLPPVNFTIKVTGLAQVLLQWKPNPDQEQRNVNLEYQVKINAPKEDDYETAITESKCVTILHKGFSASVRTILQNDHSLLASSWASAELHAPPGSPGTSIVNLTCTTNTTEDNYSRLRSYQVSLHCTWLVGTDAPEDTQYFLYYRYGSWTEECQEYSKDTLGRNIACWFPRTFILSKGRDWLAVLVNGSSKHSAIRPFDQLFALHAIDQINPPLNVTAEIEGTRLSIQWEKPVSAFPIHCFDYEVKIHNTRNGYLQIEKLMTNAFISIIDDLSKYDVQVRAAVSSMCREAGLWSEWSQPIYVGFSR [R80A]
disrupting interaction | MIIVAHVLLILLGATEILQADLLPDEKISLLPPVNFTIKVTGLAQVLLQWKPNPDQEQRNVNLEYQVKINAPKEDDYETRITESKCVTILHKGFSASVRTILQNDHSLLASSWASAELHAPPGSPGTSIVNLTCTTNTTEDNYSRLRSYQVSLHCTWLVGTDAPEDTQYFLYYRYGSWTEECQEYSKDTLGRNIACWFPRTFILSKGRDWLAVLVNGSSKHSAIRPFAQLFALHAIDQINPPLNVTAEIEGTRLSIQWEKPVSAFPIHCFDYEVKIHNTRNGYLQIEKLMTNAFISIIDDLSKYDVQVRAAVSSMCREAGLWSEWSQPIYVGFSR [D228A]
decreasing interaction | MIIVAHVLLILLGATEILQADLLPDEKISLLPPVNFTIKVTGLAQVLLQWKPNPDQEQRNVNLEYQVKINAPKEDDYETRITESKCVTILHKGFSASVRTILQNDHSLLASSWASAELHAPPGSPGTSIVNLTCTTNTTEDNYSRLRSYQVSLHCTWLVGTDAPEDTQYFLYYRYGSWTEECQEYSKDTLGRNIACWFPRTFALSKGRDWLAVLVNGSSKHSAIRPFDQLFALHAIDQINPPLNVTAEIEGTRLSIQWEKPVSAFPIHCFDYEVKIHNTRNGYLQIEKLMTNAFISIIDDLSKYDVQVRAAVSSMCREAGLWSEWSQPIYVGFSR [I203A]
decreasing interaction | MIIVAHVLLILLGATEILQADLLPDEKISLLPPVNFTIKVTGLAQVLLQWKPNPDQEQRNVNLEYQVKINAPKEDDYETRITESKCVTILHKGFSASVRTILQNDHSLLASSWASAELHAPPGSPGTSIVNLTCTTNTTEDNYSRLRSYQVSLHCTWLVGTDAPEDTQYFLYYRYGSATEECQEYSKDTLGRNIACWFPRTFILSKGRDWLAVLVNGSSKHSAIRPFDQLFALHAIDQINPPLNVTAEIEGTRLSIQWEKPVSAFPIHCFDYEVKIHNTRNGYLQIEKLMTNAFISIIDDLSKYDVQVRAAVSSMCREAGLWSEWSQPIYVGFSR [W178A]
decreasing interaction | MIIVAHVLLILLGATEILQADLLPDEKISLLPPVNFTIKVTGLAQVLLQWKPNPDQEQRNVNLEYQVKINAPKEDDYETRITEAKCVTILHKGFSASVRTILQNDHSLLASSWASAELHAPPGSPGTSIVNLTCTTNTTEDNYSRLRSYQVSLHCTWLVGTDAPEDTQYFLYYRYGSWTEECQEYSKDTLGRNIACWFPRTFILSKGRDWLAVLVNGSSKHSAIRPFDQLFALHAIDQINPPLNVTAEIEGTRLSIQWEKPVSAFPIHCFDYEVKIHNTRNGYLQIEKLMTNAFISIIDDLSKYDVQVRAAVSSMCREAGLWSEWSQPIYVGFSR [S84A]
decreasing interaction | MIIVAHVLLILLGATEILQADLLPDEKISLLPPVNFTIKVTGLAQVLLQWKPNPDQEQRNVNLEYQVKINAPKEEDYETRITESKCVTILHKGFSASVRTILQNDHSLLASSWASAELHAPPGSPGTSIVNLTCTTNTTEDNYSRLRSYQVSLHCTWLVGTDAPEDTQYFLYYRYGSWTEECQEYSKDTLGRNIACWFPRTFILSKGRDWLAVLVNGSSKHSAIRPFDQLFALHAIDQINPPLNVTAEIEGTRLSIQWEKPVSAFPIHCFDYEVKIHNTRNGYLQIEKLMTNAFISIIDDLSKYDVQVRAAVSSMCREAGLWSEWSQPIYVGFSR [D75E]
decreasing interaction | MIIVAHVLLILLGATEILQADLLPDEKISLLPPVNFTIKVTGLAQVLLQWKPNPDQEQRNVNLEYQVKINAPKEDDYETRITESKCVTILHKGFSASVRTILQNDHSLLASSWASAELHAPPGSPGTSIVNLTCTTNTTEDNYSRLRSYQVSLHCTWLVGTDAPEDTQYFLYYRYGSWTEECQEYSKDTLGRNIACWFPRTFILSKGRDWLAVLVNGSSKHSAIRPFDQLFALHAIDQINPPLNVTAEIEGTRLSIQWEKPVSAFPIHCFDYEVKIHNTRNGYLQIEKLMTNAFISIIDDLSKYDVQVRAAVSSACREAGLWSEWSQPIYVGFSR [M315A]
decreasing interaction | MIIVAHVLLILLGATEILQADLLPDEKISLLPPVNFTIKVTGLAQVLLQWKPNPDQEQRNVNLEYQVKINAPKEDDAETRITESKCVTILHKGFSASVRTILQNDHSLLASSWASAELHAPPGSPGTSIVNLTCTTNTTEDNYSRLRSYQVSLHCTWLVGTDAPEDTQYFLYYRYGSWTEECQEYSKDTLGRNIACWFPRTFILSKGRDWLAVLVNGSSKHSAIRPFDQLFALHAIDQINPPLNVTAEIEGTRLSIQWEKPVSAFPIHCFDYEVKIHNTRNGYLQIEKLMTNAFISIIDDLSKYDVQVRAAVSSMCREAGLWSEWSQPIYVGFSR [Y77A]
decreasing interaction | MIIVAHVLLILLGATEILQADLLPDEKISLLPPVNFTIKVTGLAQVLLQWKPNPDQEQRNVNLEYQVKINAPKEDDYETRITESKCVTILHKGFSASVRTILQNDHSLLASSWASAELHAPPGSPGTSIVNLTCTTNTTEDNYSRLRSYQVSLHCTWLVGTDAPEDTQYFLYYRYGSWTEECQEYSKDTLGRNIACWFPRTFILSKGKDWLAVLVNGSSKHSAIRPFDQLFALHAIDQINPPLNVTAEIEGTRLSIQWEKPVSAFPIHCFDYEVKIHNTRNGYLQIEKLMTNAFISIIDDLSKYDVQVRAAVSSMCREAGLWSEWSQPIYVGFSR [R208K]
disrupting interaction | MIIVAHVLLILLGATEILQADLLPDEKISLLPPVNFTIKVTGAAQVLLQWKPNPDQEQRNVNLEYQVKINAPKEDDYETRITESKCVTILHKGFSASVRTILQNDHSLLASSWASAELHAPPGSPGTSIVNLTCTTNTTEDNYSRLRSYQVSLHCTWLVGTDAPEDTQYFLYYRYGSWTEECQEYSKDTLGRNIACWFPRTFILSKGRDWLAVLVNGSSKHSAIRPFDQLFALHAIDQINPPLNVTAEIEGTRLSIQWEKPVSAFPIHCFDYEVKIHNTRNGYLQIEKLMTNAFISIIDDLSKYDVQVRAAVSSMCREAGLWSEWSQPIYVGFSR [L43A]
